The values that follow come from the DeepSol protein solubility set.

The series in a line: soluble on expression in E. coli; label from the status in PepcDB or PDB records.
With “SNAMIRNIVFDLGGVLIHLNREESIRRFKAIGVADIEEMLDPYLQKGLFLDLESGRKSEEEFRTELSRYIGKELTYQQVYDALLGFLEEISAEKFDYIDSLRPDYRLFLLSNTNPYVLDLAMSPRFLPSGRTLDSFFDKVYASCQMGKYKPNEDIFLEMIADSGMKPEETLFIDDGPANVATAERLGFHTYCPDNGENWIPAITRLLREQK”, the “soluble on expression in E. coli” value is “soluble”. In the case of “SNAMKIAVINGGTRSGGNTDVLAEKAVQGFDAEHIYLQKYPIQPIEDLRHAQGGFRPVQDDYDSIIERILQCHILIFATPIYWFGMSGTLKLFIDRWSQTLRDPRFPDFKQQMSVKQAYVIAVGGDNPKIKGLPLIQQFEHIFHFMGMSFKGYVLGEGNRPGDILRDHQALSAASRLLKRSDAI”, the “soluble on expression in E. coli” value is reported as “soluble”. The same measure for “SNAMKKKDMNKQVKIQDAVAAIILAEGPAGVSTTKVAKRVGIAQSNVYLYFKNKQALIDSVYARETNRILSTTDLDRLSDSTIDVTTRIRLYVQQVYDYSLANPDSLTIIQQIKALNGQGMTISAADADPNNIVANLLTAAIDAKVIKQLPVSLHMGVVFSTIHTHTTNISKGRYAQDQYTFGDIFQMIWDAMKQD”: “soluble”.

In the case of “SNAMKLMDVHVLFSGGKDSSLSAVILKKLGYNPHLITINFGVIPSYKLAEETAKILGFKHKVITLDRKIVEKAADMIIEHKYPGPAIQYVHKTVLEILADEYSILADGTRRDDRVPKLSYSEIQSLEMRKNIQYITPLMGFGYKTLRHLASEFFILEEIKSGTKLSSDYEAEIRHILKERGESPEKYFPEHKQTRVVGLKKEI”, the “soluble on expression in E. coli” value is “soluble”. The same measure for “SNAMKQAIGFIDSGVGGLTVVREVLKQLPHEQVYYLGDTARCPYGPRDKEEVAKFTWEMTNFLVDRGIKMLVIACNTATAAALYDIREKLDIPVIGVIQPGSRAALKATRNNKIGVLGTLGTVESMAYPTALKGLNRRVEVDSLACPKFVSVVESGEYKSAIAKKVVAESLLPLKSTKIDTVILGCTHYPLLKPIIENFMGDGVAVINSGEETASEVSALLDYHNLLDATDEEIEHRFFTTGSTQIFKDIAKDWLNMPDMTVEHIKLGK”: “soluble”; for “SNAMNPIEFWFDFSSGYAFFAAQRIEALAAELGRTVLWRPYMLGAAFSVTGARGLSSTPLKRDYAQRDWARIARQRGLTFRPPADHPHVALAATRAFYWIEAQSPDAATAFAQRVFDLYFSDRLDTASPEAVSRLGPEVGLEPEALLAGIADPALKETVRKIGEDAVARGIFGSPFFLVDDEPFWGWDRMEMMAEWIRTGGW”: “soluble”; for “SNAMPVRVIVDSSACLPTHVAEDLDITVINLHVMNNGEERSTSGLSSLELAASYARQLERGGDDGVLALHISKELSSTWSAAVTAAAVFDDDSVRVVDTSSLGMAVGAAAMAAARMAKDGASLQECYDIAVDTLKRSETWIYLHRIDEIWKSGRISTATAMVSTALATRPIMRFNGGRMEIAAKTRTQSKAFAKLVELAQIRADGEPVFIAIGQNEAREAAKQLEELLRNALPEGSSFMSVDIDPTLAVHSGPGAVSVSAVFANQAPELSTGKAGAK”: “soluble”. The same measure for “SNAMQRANREHLEIISLEEISMLVSSDFDLPEVLQHVTAKVATQLKVSVCNIYLREGDEVVLAATHGFDPAFIGKIRIKIGDGITGSVARDGQYISLSRASQDPRYRYFPELQEEKYNSMLSFPIGDKKEVYGVINLNTTSIRSFHEDEIYFVSIIANLILTAIKLRQQVASSRKAAEASA”: “soluble”; for “SNAMSKQLLALNIDGALLRSNGKIHQATKDAIEYVKKKGIYVTLVTNRHFRSAQKIAKSLKLDAKLITHSGAYIAEKIDAPFFEKRISDDHTFNIVQVLESYQCNIRLLHEKYSIGNKKKVNSNLLGKALIHPSDPIFYPVQFVESLSDLLMDEPVSAPVIEVYTEHDIQHDITETITKAFPAVDVIRVNDEKLNIVPKGVSKEAGLALVASELGLSMDDVVAIGHQYDDLPMIELAGLGVAMGNAVPEIKRKADWVTRSNDEQGVAYMMKEYFRMQQRKGFLDKFHMKR”: “soluble”. The same measure for “SNAMSQEAFENKLYANLEAVIDPELGVDIVNLGLVYDVTADENNNAVITMTMTSIGCPMAGQIVSDVKKVLSTNVPEVNEIEVNVVWNPPWSKERMSRMAKIALGIRD”: “soluble”. Consider “SNAMYKEGACLYRNPLRSKSDVKDWRMEGGGQISFDDHSLHLSHVQDEAHFVFWCPETFPDGIIVTWDFSPIEQPGLCMLFFAAAGIRGEDLFDPSLRKRTGTYPEYHSGDINALHLSYFRRKYAEERAFRTCNLRKSRGFHLAAMGADPLPSPDDADSPYRMKLIKDKGYVHFSINGLPILEWMDDGSTYGPVLTKGKIGFRQMAPMKAVYRDFAVHQAVRR”, for which the “soluble on expression in E. coli” value is given as “soluble”. With “SNANEAQQYYLDADEAEAWIGEQELYVISDEIPKDEEGAIVMLKRHLRQQRAVEDYGRNIKQLASRAQGLLSAGHPEGEQIIRLQGQVDKHYAGLKDVACERKRKLENMYHLFQLKRETDDLEQWISEKELVASSPEMGQDFDHVTLLRDKFRDFARETGAIGQERVDNVNAFIERLIDAGHSEAATIAEWKDGLNEMWADLLELIDTRMQLLAASYDLHRYFYTGAEILGLIDEKHRELPEDVGLDASTAESFHRVHTAFERDVHLLGVQVQQFQDVATRLQTAYAGEKAEAIQNKEQEVSAAWQALLDACAGRRTQLVDTADKF”, the “soluble on expression in E. coli” value is listed as “soluble”. In the case of “SNATKTIHNARYQALLDLLLEARSAAGITQKELAARLGRPQSFVSKTENAERRLDVIEFMDFCRGIGTDPYALLSKLEAMTPS”, the “soluble on expression in E. coli” value is listed as “soluble”.

Turning to “SNQKIASIEQLSNNEGIISALAFDQRGALKRMMAKHQTEEPTVAQIEQLKVLVAEELTQYASSILLDPEYGLPASDARNKDCGLLLAYEKTGYDVNAKGRLPDCLVEWSAKRLKEQGANAVKFLLYYDVDDAEEINIQKKAYIERIGSECVAEDIPFFLEVLTYDDNIPDNGSVEFAKVKPRKVNEAMKLFSEPRFNVDVLKVEVPVNMKYVEGFAEGEVVYTKEEAAQHFKDQDAATHLPYIYLSAGVSAELFQETLKFAHEAGAKFNGVLCGRATWSGAVQVYIEQGEDAAREWLRTTGFKNIDDLNKVLKDTATSWKQ”, the “soluble on expression in E. coli” value is reported as “not soluble”. As for “SNRTSAKSNLMLILLGLQMKEISNSDLYKLKEVRSVVTSLASFLFQQQNVGVMKSFDSLEKEAFRDLVNRLVSQGLIGLKDKTSETFDLLPLKNLFEYAEKRISVLMKLQCYTGTVQLSHVQEKLHLPYITTNGIVDVFKECLKRTKKQYPEVLKNWWIDLDPKNGMEDQNSGILLHLEYAAAYS”, the “soluble on expression in E. coli” value is listed as “soluble”. In the case of “SNYLDQMEEYDKVEEISRKHKHNCFCIQEVVSGLRQPVGALHSGDGSQRLFILEKEGYVKILTPEGEIFKEPYLDIHKLVQSGIKGGDERGLLSLAFHPNYKKNGKLYVSYTTNQERWAIGPHDHILRVVEYTVSRKNPHQVDLRTARVFLEVAELHRKHLGGQLLFGPDGFLYIILGDGMITLDDMEEMDGLSDFTGSVLRLDVDTDMCNVPYSIPRSNPHFNSTNQPPEVFAHGLHDPGRCAVDRHPTDININLTILCSDSNGKNRSSARILQIIKGKDYESEPSLLEFKPFSNGPLVGGFVYRGCQSERLYGSYVFGDRNGNFLTLQQSPVTKQWQEKPLCLGTSGSCRGYFSGHILGFGEDELGEVYILSSSKSMTQTHNGKLYKIVDPKRPLMPEECRATVQPAQTLTSECSRLCRNGYCTPTGKCCCSPGWEGDFCRTAKCEPACRHGGVCVRPNKCLCKKGYLGPQCEHHHHHH”, the “soluble on expression in E. coli” value was “soluble”. On to “SPAPNQPAAKKTLDSTPAQDKPPQPNSQGKKLASVALLLVLALGAGFAYVHQQQKSEFNNQLQAVRAELKQTRDALNAQLEQTVSKATSQATEITHRAETVLEQQQKSIESLQLAVADIKGRRPNDWLLAEADYLVKLAGRKLFLEHDVETATQLMESADQRIAALNDPSLTALRKAMANDITTLKNIPLIDRDGLVLRLISLQQQIDSLPLANAILPADQPQTSQAVSENIDDWQTNLKNSLKAFADNFITFRSRDGNVIPLLSPTQHFYLRENLQAKLETAIKGVYTEQQTLYRIALDTAAQWSTSFFNPDDKAVQSFNAALAQLAEQQVQVEYPVKLQAQQQLADVINERLRRSVSPLTTGA”, for which the “soluble on expression in E. coli” value is “not soluble”.

As for “SPNNSKHKKKQQRRQQEAQKKSRAKQIETDKKNDEFLDTELDEVSPLVIDDDMTEFKNMPKVELHAHLSGSLSPETIKLIMESDETRAEEIMKKYKLEKPENMTGVFDCFPVIHAILRKPEAIRIAIRQTIKEFEEDNCVYLELRTSPKETDFMTYEDYLQVCIESFEAAKHEFPRIKTFLIVSLDRRMPFETAAHILGLIGEAQQRTNVIVGVELSGDPHLDGRRLLKLFVAARRFHGLGITIHLAEVLQNMADVEDYLNLRPDRIGHGTFLHTDPYTEYLTNKYKIPLGENLIQLHLIFLFFLEICLSSNVYSKTTTNYRNSHFNYWRKRGVPVFICTDDKGVIPGATLTEEYYKAAITFDLSTEELIGINQDALLNSFAYKYNVTDLTETFRKINNNVLD”, the “soluble on expression in E. coli” value is recorded as “not soluble”. On to “SPPPKAGLPLQQELASGSALVTDQNTGKVLYSRNPDLVVPIASITKLMTAMVVLDSKLPLDEVLPIAISETSEMRGVFSRVRVGSQISRRDMLLLALMSSENRAAASLAQNYPGGKNAFVKAMNAKAHALGMKNTRYVEPTGLSLHNVSTARDLTRLLVASRQYPLLSQWSTTPEKTVAFRHPNYTLGFRNTNHLINNKTWNIQLTKTGFTNEAGHCLVMRTTINRSPVNLVVLDAFGKYTHFADATRLRRWLETGQVTAIPAAAKAYRLQRDRERGLGQPVAQAVR”, for which the “soluble on expression in E. coli” value is on record as “soluble”. As for “SQPIATQELQLGDELANKAFAATNRGDFVAAEDYWTQIIEKFPINAGAWINRGNSRVSQNKLEAALTDYNKAIELAPNLTDPYLNRGTALEGLGKWEDAIADYNYVLALDPNDAMAYNNRGNAKTGLGKWEDAISDYQKATAIAPNFAFARANYALALYETGQTDKAIREMRNIVRKYPKFADMRAALTAAYWVGGQKGEAESNWVAAYGLDTRYKDMDWVTNIRRWPPSMVAALDKFLKLN”, the “soluble on expression in E. coli” value was “soluble”.

With “SRWQRDLTDSTVLRNMGVALGHTLLAYDSCLKGLGKLQADPARLSEDLQNAWEVLAEPIQTVMRRYGVANPYEQLKALTRGKTGIDRTTLQQFIEQLDIPAAERDRLLQLTPWGYI”, the “soluble on expression in E. coli” value is given as “not soluble”.

For “SSALIQTPSSLLVQTNHTAKMSCEVKSISKLTSIYWLRERQDPKDKYFEFLASWSSSKGVLYGESVDKKRNIILESSDSRRPFLSIMNVKPEDSDFYFCATVGSPKMVFGTGTKLTVVDVLPTTAPTKKTTLKMKKKKQCPFPHPETQKG”, the “soluble on expression in E. coli” value is reported as “soluble”. The same measure for “SSDLEDDETPQLSAHALAALQEFYAEQKQQIEPGEDDKYNIGIIEENWQLSQFWYSQETALQLAQEAIAAVGEGGRIACVSAPSVYQKLRELCRENFSIYIFEYDKRFAMYGEEFIFYDYNNPLDLPERIAAHSFDIVIADPPYLSEECLRKTSETVKYLTRGKILLCTGAIMEEQAAELLGVKMCTFVPRHTRNLANEFRCYVNYDSGLDCGI”: “soluble”. The same measure for “SSGIHVALVTGGNKGIGLAIVRDLCRLFSGDVVLTARDVTRGQAAVQQLQAEGLSPRFHQLDIDDLQSIRALRDFLRKEYGGLDVLVNNAGIAFKVADPTPFHIQAEVTMKTNFFGTRDVCTELLPLIKPQGRVVNVSSIMSVRALKSCSPELQQKFRSETITEEELVGLMNKFVEDTKKGVHQKEGWPSSAYGVTKIGVTVLSRIHARKLSEQRKGDKILLNACCPGWVRTDMAGPKATKSPEEGAETPVYLALLPPDAEGPHGQFVSEKRVEQW”: “soluble”.
